Data set [1] relates to HeLa Kyoto. Nature of the data set: melting temperature (median over replicates), in situ; higher = more thermally stable.
Data set [2] relates to HeLa Kyoto. Put plainly: solubility change mitosis vs G1/S (difference of NP-40 vs SDS log2 ratios) (log2 ratio difference); higher = more soluble in mitosis.
In data set [3] the test system is HeLa Kyoto. Nature of the data set: thermal stability score vs G1/S (z-score of summed log2 fold changes over temperatures); higher = more thermally stable than in G1/S.
Data set [4] deals with HeLa Kyoto. Nature of the data set: solubility in G1/S (NP-40 vs SDS abundance) (log2 ratio); higher = more soluble. The conditions noted are these: cell cycle stage: G1/S.
[5] abbreviates: cell cycle stage: early G1 (4.5 h after nocodazole release).
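For melting temperature (median over replicates), in situ in this document: HeLa Kyoto cells synchronized by double thymidine or nocodazole block, proteins quantified by TMT10plex mass spectrometry, three independent biological replicates.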
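For solubility change mitosis vs G1/S (difference of NP-40 vs SDS log2 ratios) in this document: synchronized HeLa Kyoto cells (double thymidine block for G1/S, nocodazole release for mitosis), protein amounts in NP-40 versus SDS lysates quantified by mass spectrometry, three biological replicates.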
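For solubility in G1/S (NP-40 vs SDS abundance) in this document: HeLa Kyoto cells arrested at G1/S by double thymidine block, proteins quantified by TMT10plex mass spectrometry in mild NP-40 versus SDS extracts, three biological replicates.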
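For thermal stability score vs G1/S (z-score of summed log2 fold changes over temperatures) in this document: synchronized HeLa Kyoto cells, proteins quantified by TMT10plex mass spectrometry, three biological replicates, mitosis taken 0.5 h after nocodazole release, G1/S directly after double thymidine block.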

On to “MIAAQLLAYYFTELKDDQVKKIDKYLYAMRLSDETLIDIMTRFRKEMKNGLSRDFNPTATVKMLPTFVRSIPDGSEKGDFIALDLGGSSFRILRVQVNHEKNQNVHMESEVYDTPENIVHGSGSQLFDHVAECLGDFMEKRKIKDKKLPVGFTFSFPCQQSKIDEAILITWTKRFKASGVEGADVVKLLNKAIKKRGDYDANIVAVVNDTVGTMMTCGYDDQHCEVGLIIGTGTNACYMEELRHIDLVEGDEGRMCINTEWGAFGDDGSLEDIRTEFDREIDRGSLNPGKQLFEKMVSGMYLGELVRLILVKMAKEGLLFEGRITPELLTRGKFNTSDVSAIEKNKEGLHNAKEILTRLGVEPSDDDCVSVQHVCTIVSFRSANLVAATLGAILNRLRDNKGTPRLRTTVGVDGSLYKTHPQYSRRFHKTLRRLVPDSDVRFLLSESGSGKGAAMVTAVAYRLAEQHRQIEETLAHFHLTKDMLLEVKKRMRAEMELGLRKQTHNNAVVKMLPSFVRRTPDGTENGDFLALDLGGTNFRVLLVKIRSGKKRTVEMHNKIYAIPIEIMQGTGEELFDHIVSCISDFLDYMGIKGPRMPLGFTFSFPCQQTSLDAGILITWTKGFKATDCVGHDVVTLLRDAIKRREEFDLDVVAVVNDTVGTMMTCAYEEPTCEVGLIVGTGSNACYMEEMKNVEMVEGDQGQMCINMEWGAFGDNGCLDDIRTHYDRLVDEYSLNAGKQRYEKMISGMYLGEIVRNILIDFTKKGFLFRGQISETLKTRGIFETKFLSQIESDRLALLQVRAILQQLGLNSTCDDSILVKTVCGVVSRRAAQLCGAGMAAVVDKIRENRGLDRLNVTVGVDGTLYKLHPHFSRIMHQTVKELSPKCNVSFLLSEDGSGKGAALITAVGVRLRTEASS [HK1]”, for which the melting temperature in the data set on HeLa Kyoto [1] (cell cycle stage: G1/S) came to 51.5 °C; with HeLa Kyoto [1] (cell cycle stage: mitosis), 51.9 °C. In addition, the “solubility change mitosis (log2)” value in the data set on HeLa Kyoto [2] is -0.149. The values for the thermal stability score in the data set with HeLa Kyoto [3] (setting [5]) and in the data set on HeLa Kyoto [3] (cell cycle stage: mitosis) were -0.647 and -0.641, respectively. For the same substance, the “solubility in G1/S (log2)” value in the data set on HeLa Kyoto [4] was -0.0302.

For MICAL3, the melting temperature with HeLa Kyoto [1] (cell cycle stage: G1/S) came to 51.4 °C; in the data set on HeLa Kyoto [1] (cell cycle stage: mitosis), 50.5 °C. Besides, the “solubility change mitosis (log2)” value in the data set with HeLa Kyoto [2] was -0.0995. For the same substance, the thermal stability score in the data set with HeLa Kyoto [3] (setting [5]) was -0.909; in the data set on HeLa Kyoto [3] (cell cycle stage: mitosis), -0.953. Besides, the “solubility in G1/S (log2)” value in the data set with HeLa Kyoto [4] is -0.213.

As for “MIIYRDLISHDEMFSDIYKIREIADGLCLEVEGKMVSRTEGNIDDSLIGGNASAEGPEGEGTESTVITGVDIVMNHHLQETSFTKEAYKKYIKDYMKSIKGKLEEQRPERVKPFMTGAAEQIKHILANFKNYQFFIGENMNPDGMVALLDYREDGVTPYMIFFKDGLEMEKC [TPT1]”, the melting temperature with HeLa Kyoto [1] (cell cycle stage: G1/S) stood at 53.5 °C; in the data set on HeLa Kyoto [1] (cell cycle stage: mitosis), 52.9 °C. For the same substance, the “solubility change mitosis (log2)” value in the data set on HeLa Kyoto [2] was -0.0912. The thermal stability score with HeLa Kyoto [3] (setting [5]) came out at 0.357; with HeLa Kyoto [3] (cell cycle stage: mitosis), 0.0736. Moreover, the “solubility in G1/S (log2)” value in the data set with HeLa Kyoto [4] was 0.476.

For “MIKKFDKKDEESGSGSNPFQHLEKSAVLQEARIFNETPINPRRCLHILTKILYLLNQGEHFGTTEATEAFFAMTRLFQSNDQTLRRMCYLTIKEMATISEDVIIVTSSLTKDMTGKEDVYRGPAIRALCRITDGTMLQAIERYMKQAIVDKVSSVSSSALVSSLHMMKISYDVVKRWINEAQEAASSDNIMVQYHALGVLYHLRKNDRLAVSKMLNKFTKSGLKSQFAYCMLIRIASRLLKETEDGHESPLFDFIESCLRNKHEMVIYEAASAIIHLPNCTARELAPAVSVLQLFCSSPKPALRYAAVRTLNKVAMKHPSAVTACNLDLENLITDSNRSIATLAITTLLKTGSESSVDRLMKQISSFVSEISDEFKVVVVQAISALCQKYPRKHSVMMTFLSNMLRDDGGFEYKRAIVDCIISIVEENPESKEAGLAHLCEFIEDCEHTVLATKILHLLGKEGPRTPVPSKYIRFIFNRVVLENEAVRAAAVSALAKFGAQNESLLPSILVLLQRCMMDTDDEVRDRATFYLNVLQQRQMALNATYIFNGLTVSVPGMEKALHQYTLEPSEKPFDMKSIPLAMAPVFEQKAEITLVATKPEKLAPSRQDIFQEQLAAIPEFLNIGPLFKSSEPVQLTEAETEYFVRCIKHMFTNHIVFQFDCTNTLNDQLLEKVTVQMEPSDSYEVLSCIPAPSLPYNQPGICYTLVRLPDDDPTAVAGSFSCTMKFTVRDCDPNTGVPDEDGYDDEYVLEDLEVTVSDHIQKVLKPNFAAAWEEVGDTFEKEETFALSSTKTLEEAVNNIITFLGMQPCERSDKVPENKNSHSLYLAGIFRGGYDLLVRSRLALADGVTMQVTVRSKERTPVDVILASVG [COPG2]”, the results for the melting temperature with HeLa Kyoto [1] (cell cycle stage: G1/S) and in the data set on HeLa Kyoto [1] (cell cycle stage: mitosis) were 52 °C and 51.8 °C, respectively. In addition, the “solubility change mitosis (log2)” value in the data set with HeLa Kyoto [2] is -0.304. In addition, the thermal stability score in the data set on HeLa Kyoto [3] (setting [5]) stood at 0.652; with HeLa Kyoto [3] (cell cycle stage: mitosis), 0.0351. Moreover, the “solubility in G1/S (log2)” value in the data set with HeLa Kyoto [4] is -0.192.

As to “MILNSLSLCYHNKLILAPMVRVGTLPMRLLALDYGADIVYCEELIDLKMIQCKRVVNEVLSTVDFVAPDDRVVFRTCEREQNRVVFQMGTSDAERALAVARLVENDVAGIDVNMGCPKQYSTKGGMGAALLSDPDKIEKILSTLVKGTRRPVTCKIRILPSLEDTLSLVKRIERTGIAAIAVHGRKREERPQHPVSCEVIKAIADTLSIPVIANGGSHDHIQQYSDIEDFRQATAASSVMVARAAMWNPSIFLKEGLRPLEEVMQKYIRYAVQYDNHYTNTKYCLCQMLREQLESPQGRLLHAAQSSREICEAFGLGAFYEETTQELDAQQARLSAKTSEQTGEPAEDTSGVIKMAVKFDRRAYPAQITPKMCLLEWCRREKLAQPVYETVQRPLDRLFSSIVTVAEQKYQSTLWDKSKKLAEQAAAIVCLRSQGLPEGRLGEESPSLHKRKREAPDQDPGGPRAQELAQPGDLCKKPFVALGSGEESPLEGW [DUS2]”, the melting temperature in the data set on HeLa Kyoto [1] (cell cycle stage: G1/S) came out at 50.3 °C; in the data set with HeLa Kyoto [1] (cell cycle stage: mitosis), 50.9 °C. In addition, the “solubility change mitosis (log2)” value in the data set on HeLa Kyoto [2] was -0.0821. Moreover, the thermal stability score in the data set with HeLa Kyoto [3] (setting [5]) was 0.209; with HeLa Kyoto [3] (cell cycle stage: mitosis), 0.349. Further, the “solubility in G1/S (log2)” value with HeLa Kyoto [4] is -0.0157.

For the origin of these results see the supplement of paper PMC5998384.
